{"source": "patent US20020082273A1", "about": "“Agents for use in the treatment of alzheimer's disease” (priority 1998, published 2002)", "test_system": "Aβ1-40 or Aβ1-42 SDS-resistant polymers", "assay": "Dissolution of in vitro Cu^2+-induced SDS-resistant Aβ polymers", "assay_type": "biochemical, human", "data": [{"molecule": "proteinase K: protease (protein, UniProt P06873 106-384, looked up) Proteinase K: AAQTNAPWGLARISSTSPGTSTYYYDESAGQGSCVYVIDTGIEASHPEFEGRAQMVKTYYYSSRDGNGHGTHCAGTVGSRTYGVAKKTQLFGVKVLDDNGSGQYSTIIAGMDFVASDKNNRNCPKGVVASLSLGGGYSSSVNSAAARLQSSGVMVAVAAGNNNADARNYSPASEPSVCTVGASDRYDRRSSFSNYGSVLDIFGPGTSILSTWIGGSTRSISGTSMATPHVAGLAAYLMTLGKTTAASACRYIADTANKGDLSNIPFGTVNLLAYNNYQA", "values": [{"measurement": "degradation of SDS-resistant Aβ polymers", "value": "complete degradation"}]}]}
